Assay results reported in patent publication US20210388087A1 (Chugai, published 2021).

B1: CE115HA000 D101P one-arm antibody (antibody, human IgG1, kappa, L234A L235A, N297A, name in Kabat numbering)
heavy: QVQLVESGGGVVQPGRSLRLSCAASGFTFSNAWMHWVRQAPGKGLEWVAQIKAKSNNYATYYAESVKGRFTISRDDSKNSLYLQMNSLKTEDTAVYYCRYVHYGAYYGVPAWGQGTTVTVSSASTKGPSVFPLAPSSKSTSGGTAALGCLVKDYFPEPVTVSWNSGALTSGVHTFPAVLQSSGLYSLSSVVTVPSSSLGTQTYICNVNHKPSNTKVDKKVEPKSCDKTHTCPPCPAPEAAGGPSVFLFPPKPKDTLMISRTPEVTCVVVDVSHEDPEVKFNWYVDGVEVHNAKTKPREEQYASTYRVVSVLTVLHQDWLNGKEYKCKVSNKALPAPIEKTISKAKGQPREPQVYTLPPSRCELTKNQVSLSCAVKGFYPSDIAVEWESNGQPENNYKTTPPVLDSDGSFFLVSKLTVDKSRWQQGNVFSCSVMHEALHNHYTQKSLSLSPDYKDDDDK
chain: EPKSSDKTHTCPPCPAPELLGGPSVFLFPPKPKDTLMISRTPEVTCVVVDVSHEDPEVKFNWYVDGVEVHNAKTKPREEQYNSTYRVVSVLTVLHQDWLNGKEYKCKVSNKALPAPIEKTISKAKGQPREPQVCTLPPSRDELTKNQVSLWCLVKGFYPSDIAVEWESNGQPENNYKTTPPVLDSDGSFFLYSKLTVDKSRWQQGNVFSCSVMHEALHNRYTQKSLSLSP
light: DIVMTQSPLSLPVTPGEPASISCRSSQSLVHSNRNTYLHWYQQKPGQAPRLLIYKVSNRFSGVPDRFSGSGSGTDFTLKISRVEAEDVGVYYCGQGTQVPYTFGQGTKLEIKRTVAAPSVFIFPPSDEQLKSGTASVVCLLNNFYPREAKVQWKVDNALQSGNSQESVTEQDSKDSTYSLSSTLTLSKADYEKHKVYACEVTHQGLSSPVTKSFNRGEC
B2: CE115HA000 D101Q one-arm antibody (antibody, human IgG1, kappa, L234A L235A, N297A, name in Kabat numbering)
heavy: QVQLVESGGGVVQPGRSLRLSCAASGFTFSNAWMHWVRQAPGKGLEWVAQIKAKSNNYATYYAESVKGRFTISRDDSKNSLYLQMNSLKTEDTAVYYCRYVHYGAYYGVQAWGQGTTVTVSSASTKGPSVFPLAPSSKSTSGGTAALGCLVKDYFPEPVTVSWNSGALTSGVHTFPAVLQSSGLYSLSSVVTVPSSSLGTQTYICNVNHKPSNTKVDKKVEPKSCDKTHTCPPCPAPEAAGGPSVFLFPPKPKDTLMISRTPEVTCVVVDVSHEDPEVKFNWYVDGVEVHNAKTKPREEQYASTYRVVSVLTVLHQDWLNGKEYKCKVSNKALPAPIEKTISKAKGQPREPQVYTLPPSRCELTKNQVSLSCAVKGFYPSDIAVEWESNGQPENNYKTTPPVLDSDGSFFLVSKLTVDKSRWQQGNVFSCSVMHEALHNHYTQKSLSLSPDYKDDDDK
chain: EPKSSDKTHTCPPCPAPELLGGPSVFLFPPKPKDTLMISRTPEVTCVVVDVSHEDPEVKFNWYVDGVEVHNAKTKPREEQYNSTYRVVSVLTVLHQDWLNGKEYKCKVSNKALPAPIEKTISKAKGQPREPQVCTLPPSRDELTKNQVSLWCLVKGFYPSDIAVEWESNGQPENNYKTTPPVLDSDGSFFLYSKLTVDKSRWQQGNVFSCSVMHEALHNRYTQKSLSLSP
light: DIVMTQSPLSLPVTPGEPASISCRSSQSLVHSNRNTYLHWYQQKPGQAPRLLIYKVSNRFSGVPDRFSGSGSGTDFTLKISRVEAEDVGVYYCGQGTQVPYTFGQGTKLEIKRTVAAPSVFIFPPSDEQLKSGTASVVCLLNNFYPREAKVQWKVDNALQSGNSQESVTEQDSKDSTYSLSSTLTLSKADYEKHKVYACEVTHQGLSSPVTKSFNRGEC

Molecular target: T1, CD3 epsilon homodimer protein (UniProt P07766 23-126)
T1 construct: immobilized on Sensor chip CM4 by amine coupling; also called CD3 (CD3 epsilon)
T1 sequence (P07766 23-126): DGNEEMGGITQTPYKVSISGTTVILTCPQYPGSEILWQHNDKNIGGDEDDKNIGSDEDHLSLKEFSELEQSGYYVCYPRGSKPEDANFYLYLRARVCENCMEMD
Assay: SPR (Biacore T200), CD3 epsilon homodimer on CM4 chip, one-arm antibody as analyte, 25 C;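 also: homodimer attached to the sensor surface via amine coupling, HBS-EP+ used as running buffer during binding runs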

Binder	ratio of amounts bound (altered form / CE115HA000)
B1	0.2
B2	2.35
